What was measured:
[1] = biological target: Cy3-conjugated K9-C-peptide (C-peptide bound to the elastin-like polypeptide composed of 9 [(VPGVG)11(VPGKG)1(VPGVG)1] repeating units), as hydrogel on an amine array; test: cell-based or functional assay
[2] = tested on: Cy3-conjugated K9-C-peptide (C-peptide bound to the elastin-like polypeptide composed of 9 [(VPGVG)11(VPGKG)1(VPGVG)1] repeating units), as hydrogel on an amine array

Sequence of Cy3-conjugated K9-C-peptide (C-peptide bound to the elastin-like polypeptide composed of 9 [(VPGVG)11(VPGKG)1(VPGVG)1] repeating units), as hydrogel on an amine array (chain, as listed by the source): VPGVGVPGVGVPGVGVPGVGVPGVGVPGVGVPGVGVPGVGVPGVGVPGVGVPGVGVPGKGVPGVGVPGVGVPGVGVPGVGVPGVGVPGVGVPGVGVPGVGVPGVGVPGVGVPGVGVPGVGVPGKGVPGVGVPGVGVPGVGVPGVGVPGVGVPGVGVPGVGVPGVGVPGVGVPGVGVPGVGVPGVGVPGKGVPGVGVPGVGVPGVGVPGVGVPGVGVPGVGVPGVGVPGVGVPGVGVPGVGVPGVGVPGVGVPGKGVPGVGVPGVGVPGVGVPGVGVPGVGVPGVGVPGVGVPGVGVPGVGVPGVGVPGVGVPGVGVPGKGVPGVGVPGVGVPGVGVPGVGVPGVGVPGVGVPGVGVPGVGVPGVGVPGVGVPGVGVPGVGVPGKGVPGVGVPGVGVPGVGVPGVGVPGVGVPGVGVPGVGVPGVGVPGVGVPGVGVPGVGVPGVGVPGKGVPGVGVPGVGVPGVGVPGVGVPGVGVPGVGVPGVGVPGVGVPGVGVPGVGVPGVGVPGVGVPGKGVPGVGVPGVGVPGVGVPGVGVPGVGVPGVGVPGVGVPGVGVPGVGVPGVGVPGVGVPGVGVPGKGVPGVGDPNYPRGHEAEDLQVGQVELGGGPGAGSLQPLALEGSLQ

| Substance | EC50 of on-chip degradation of Cy3-conjugated K9-C-peptide hydrogel versus protease concentration [1] | highest degradation rate of the hydrogel, at 120 min (time course) [2] | hydrogel degraded after the first elastase-2 treatment (repeated every 30 min) [2] | maximum degradation rate, after the fifth elastase-2 treatment [2] |
| --- | --- | --- | --- | --- |
| collagenase-2 (enzyme) | 0.17 U/ml | – | – | – |
| elastase-2 | – | 72.3% at 120 min | 48.6+/-0.8% | 89.7+/-0.2% |
| elastase-2 (enzyme) | 0.23 U/ml | – | – | – |
| pepsin (enzyme) | 510 U/ml | – | – | – |
| trypsin (enzyme) | 125 U/ml | – | – | – |
